Results from patent publication US6114506, “Composition and method for enhancing fibrinolysis” (General Hospital Corporation, dated 2000).

Columns and labels:
[1] = target: T1, human alpha-2-antiplasmin (human, UniProt P08697, 125I label in the radioimmunoassays of Example 1; biotin in the competition assay of Example 5; unlabelled in the ELISA, plasmin and clot lysis assays); experiment: ELISA: plates coated with α2-antiplasmin (American Diagnostica), anti-human kappa conjugate
T1 sequence: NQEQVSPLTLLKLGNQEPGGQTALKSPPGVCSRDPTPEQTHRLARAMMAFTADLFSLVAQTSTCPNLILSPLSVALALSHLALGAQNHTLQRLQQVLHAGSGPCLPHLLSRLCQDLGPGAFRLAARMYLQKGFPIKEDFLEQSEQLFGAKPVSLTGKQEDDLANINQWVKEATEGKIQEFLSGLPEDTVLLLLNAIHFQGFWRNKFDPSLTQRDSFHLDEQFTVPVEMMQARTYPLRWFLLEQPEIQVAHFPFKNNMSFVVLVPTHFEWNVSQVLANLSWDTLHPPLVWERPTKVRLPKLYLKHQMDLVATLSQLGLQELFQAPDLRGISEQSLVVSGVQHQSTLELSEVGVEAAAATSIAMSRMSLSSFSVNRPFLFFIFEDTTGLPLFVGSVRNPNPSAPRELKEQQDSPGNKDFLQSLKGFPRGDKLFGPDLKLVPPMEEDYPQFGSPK

[2] = target: T1, human alpha-2-antiplasmin

B1: h77A3-1 (humanized 77A3) (antibody, V domains shown)
VH: QIQLVQSGSELKKPGASVKISCKASGYTFTNYGMNWVRQAPGQGLEWMGWINTKSGEPTYAEEFKGRFVFSLDTSVTTAYLQISSLKAEDTAVYFCARWVPGTYAMDYWGQGTTVTVSS
VL: DIQMTQSPSSLSASVGDRVTITCRASGNIHNYLAWYQQKQGKSPQLLVYNAKTLASGVPSRFSGSGSGTDFTLTISSLQPEDFGSHYCQHFWTTPWTFGGGTKLEIK
- binding result [1]: binds

B2: h77A3-2 (humanized 77A3) (antibody, V domains shown)
VH: QIQLVQSGAEVKKPGASVKISCKASGYTFTNYGMNWVRQAPGQGLEWMGWINTKSGEPTYAEEFKGRFTFTLDTSTSTAYLEIRSLRSDDTAVYFCARW
VL: DIQMTQSPSSLSASVGDRVTITCRASGNIHNYLAWYQQKQGKSPQLLVYNAKTLASGVPSRFSGSGSGTDFTLTISSLQPEDFGSHY
- plasmin assay with chromogenic substrate: loss in activity [2]: 20 to 30%
